The record followed here is publication PMC8837141, “Structural and Functional Differences between Homologous Bacterial Ribonucleases” (International Journal of Molecular Sciences, 2022).

Series [1] concerns the target balifase (Bacillus licheniformis). Description: SEC; size-exclusion chromatography of the purified RNases; molecular weights from the elution profile of marker proteins; column and buffer not told. Background: Size exclusion chromatography separates by hydrodynamic size, large species first.
Series [2] concerns the target balnase (Bacillus altitudinis). The description is as above.
Series [3] concerns the molecule itself. Described as above.
Series [4] deals with the molecule itself. Description: dynamic light scattering; Zetasizer Nano ZS; RNase diluted with ultrapure water, filtered, sonicated for 2 min; particle size by volume distribution; ten runs of 30 s.

balifase (enzyme): the stoichiometry N (commonly the number of molecules, sites or subunits per partner or assembly) in series [1] stood at 2.
In series [2], balnase (enzyme) came in with a stoichiometry N of 2.

B1: barnase (enzyme, Bacillus amyloliquefaciens, UniProt P00648 48-157, looked up)
chain: AQVINTFDGVADYLQTYHKLPDNYITKSEAQALGWVASKGNLADVAPGKSIGGDIFSNREGKLPGKSGRTWREADINYTSGFRNSDRILYSSDWLIYKTTDHYQTFTKIR
notes: barnase, guanyl-preferring ribonuclease of Bacillus amyloliquefaciens; also called RNase from B. amyloliquefaciens; source: homogeneous protein preparation, obtained using previously described three-step procedure [19,30]
B1: the “stoichiometry N” value in series [3] stood at 2.

B2: binase (enzyme, Bacillus pumilus, UniProt P00649 54-162, looked up)
chain: AVINTFDGVADYLIRYKRLPDNYITKSQASALGWVASKGNLAEVAPGKSIGGDVFSNREGRLPSASGRTWREADINYVSGFRNADRLVYSSDWLIYKTTDHYATFTRIR
notes: binase, guanyl-preferring ribonuclease of Bacillus pumilus (~12 kDa), N1/T1/U2 family (IPR000026); also called RNase from B. pumilus; source: homogeneous protein preparation, obtained using previously described three-step procedure [19,30]
For the molecule B2, the “stoichiometry N” value in series [4] was 2.
